Experimental findings from FireProtDB (doi:10.1021/bi00231a002) are described below.

For this data set the following is noted: Rhodobacter capsulatus (strain ATCC BAA-309 / NBRC 16581 / SB1003); pH 7.5; 20 °C; GdnHCl; CD; Tris-HCl 20 mM; NaCl 40 mM; whole UniProt chain shown.

B1: Cytochrome c2 wild type, P00094 (protein)
chain: MKISLTAATVAALVLAAPAFAGDAAKGEKEFNKCKTCHSIIAPDGTEIVKGAKTGPNLYGVVGRTAGTYPEFKYKDSIVALGASGFAWTEEDIATYVKDPGAFLKEKLDDKKAKTGMAFKLAKGGEDVAAYLASVVK
In the case of B1, the denaturant m value was determined as 1.65 kcal/mol/M, the “denaturant midpoint (higher = more stable)” value stood at 4.51 M and the unfolding free energy is 7.45 kcal/mol.
